According to the DeepSol protein solubility set:

assay: soluble on expression in E. coli; label from the status in PepcDB or PDB records

| Sequence | soluble on expression in E. coli |
| --- | --- |
| NEPVAVIGVGCRFPGDIDGPERLWDFLTEKKCAITAYPDRGFTNAGTFAESGGFLKDVAGFDNRFFDIPPDEALRMDPQQRLLLEVSWEALEHAGIIPESLRLSRTGVFVGVSSTDYVRLVSASAQQKSTIWDNTGGSSSIIANRISYFLDIQGPSIVIDTACSSSLVAVHLACRSLSTWDCDIALVGGTNVLISPEPWGGFREAGILSQTGCCHAFDKSADGMVRGEGCGVIVLQRLSDARLEGRRILAILTGSAVNQDGKSNGIMAPNPSAQIGVLENACKSARVDPLEIGYVEAHGTGTSLGDRIEAHALGMVFGRKRPGSGPLMIGSIKPNIGHLEGAAGIAGLIKAVLMVERGSLLPSGGFTEPNPAIPFTELGLRVVDELQEWPVVAGRPRRAGVSSFGFGGTNAHVIVEEA | soluble |
| MGSSHHHHHHSSGENLYFQGMTDPAPPPTALAAAKARMRELAASYGAGLPGRDTHSLMHGLDGITLTFMPMGQRDGAYDPEHHVILINSQVRPERQRFTLAHEISHALLLGDDDLLSDLHDEYEGDRLEQVIETLCNVGAAALLMPAELIDDLLTRFGPTGRALAELARRADVSATSALYALAERTAPPVIYAVCALSRQEDEGEGGGAKELTVRASSASAGVKYSLSAGTPVPDDHPAALALDTRLPLAQDSYVPFRSGRRMPAYVDAFPERQRVLVSFALPAGRSEPDADKPEAPGDQS | soluble |
| MTVDFYSFAKGIVKGVLTPFYRIQTIGIEQFPKEGGVLLCANHISNLDPPVIGITAPRPIRFMAKEELFRAPVVKTLVKSLHAFPVKRGMNDRQALRTGLEVLKQGEVLGIFPEGTRSKDGRLKKALPGVGFFALRTDAAVVPCAIVGPYRPFVPLKVVYGAPVDMAPLRARKASPEEAADYIMDHIRRLLEEHQRA | not soluble |
| LTARFTNTELNGYQRLMSYFEEMVKVEDDVCNANKCLLVKLSAEVSDLSEPMRIALRRGADKTIQAMAECIDVGIQDGSIPSGDSALLARQIYYLWNGASLLNKLYQDQEALTQSLTYTQHLLQNTRTCP | not soluble |
| AIAAKDILGEAGLHFDELNKLRVLDPEVTQQTIELKEECKDFVDKIGQFQKIVGGLIELVDQLAKEAENEKMKAIGARNLLKSIAKQREAQQQQLQALIAEKKMQLERYRVEYEALCKVEAEQNEFIDQFIFQK | soluble |
| MAHHHHHHMKKLGLVLDAAAVEKSQRDLQSYQIKNNNSLQLRAFLLNESGMFTKDGRKLPGSVTKEVIDDTSKRIIGRGASGAVYFAKLKDGGPVALKHIPITSKPHRDEVDRELSFFSSQSNSPFVMKNLGAFWDSEEAAIVIPMEWMAYTLKDLSCFWEGIEETMLRDIFFQVVSGLVYLHDTKRVIHRDLKPSNLLIRDDGYVKIGDFGVSKLVHTLDVSSTYVGTMYFMAPERLEQGAYGFNSDVWSLGLTVLSTITGKNPWAPPEEMNIFQLLGRIAGDTTPTLPEKPAYSEEARDFVKKCLVRDPQERPSTAELLKHPFFKGCTEASAVANVKQGVDYMTRLINSDAKKNGLLKRSPEDVTKEVNAKLDRLGDL | soluble |
| AMRQCAIYGKGGIGKSTTTQNLVAALAEMGKKVMIVGCDPKADSTRLILHSKAQNTIMEMAAEAGTVEDLELEDVLKAGYGGVKCVESGGPEPGVGCAGRGVITAINFLEEEGAYEDDLDFVFYDVLGDVVCGGFAMPIRENKAQEIYIVCSGEMMAMYAANNISKGIVKYANSGSVRLGGLICNSRNTDREDELIIALANKLGTQMIHFVPRDNVVQRAEIRRMTVIEYDPKAKQADEYRALARKVVDNKLLVIPNPITMDELEELLMEFGIMEVEDESIVGKTAEEV | soluble |
| MGSDKIHHHHHHMHHNTWKGIILQKQGLLKPQSVQQICQNLNGLQAQFQPYVHIGFRNRMTNEAFQNQDWQASLTRQWSLRRTVHAYLKSEIPLYIHEGRMASVDYLETVSWDGALPQVKKKFYQVILEALETGPMTREELKILCRAENIGVEEEKQVFNAWGGLLRYMVERGEIYQEYGVKRFHRLRDFQPLPKKEAELEIARRYFTGFGPVSLADARYYFKENKSTVLKWMEQLDLKTVEVAGEERFYLGELEEAELPDCLFVAGFDQLLLGYEKKANPFFNPKYIRNIYTLTGIVKPVVFYKGRFVATWKRDKGTILLDIFEDITQQEEKELEHYRQMFEKIL | not soluble |
| MAGSPTCLTLIYILWQLTGSAASGPVKELVGSVGGAVTFPLKSKVKQVDSIVWTFNTTPLVTIQPEGGTIIVTQNRNRERVDFPDGGYSLKLSKLKKNDSGIYYVGIYSSSLQQPSTQEYVLHVYEHLSKPKVTMGLQSNKNGTCVTNLTCCMEHGEEDVIYTWKALGQAANESHNGSILPISWRWGESDMTFICVARNPVSRNFSSPILARKLCEGAADDPDGSGLNDIFEAQKIEWHHHHHHHH | soluble |
| SAEGDAGSDQRQNEEIEAMAAIYGEEWCVIDDCAKIFCIRISDDIDDPKWTLCLQVMLPNEYPGTAPPIYQLNAPWLKGQERADLSNSLEEIYIQNIGESILYLWVEKIRDVLIQKSQMTEPGPDVKKKTEEEDVECEDDLILACQPESSVKALDFDISETRTEVEVEELPPIDHGIPITDRRSTFQAHLAPVVCPKQVKMVLSKLYENKKIASATHNIYAYRIYCEDKQTFLQDCEDDGETAAGGRLLHLMEILNVKNVMVVVSRWYGGILLGPDRFKHINNCARNILVEKNYTNSPEESSKALGKNKKVRKDKKRNEH | soluble |
| MGSDKIHHHHHHMGNFLYGIDFGTSNSVLSIFDEDKNEIIETLSVPSILYFPDAYDPALPLQYYVGEDAIRYYISDGMKGRFMKSIKRVLPRTNFVETRIHTKSFNAAGLITLILKELKTKADAIIGMDCKKAIIGRPVYFDDDNTVNDAVAQKRLLQAAQQAGLSDIRFQYEPIGAAFAYERTISKKEHVLVADLGGGTTDFTFIELDPHKNNRKDRRSDIIATGGIYIGGDSFDSAFMWDKGTPYFGRGVTYESMPGKMVDVPPSFFSNICSWEKMNFFNGVKVQNDLRQYYNYSKQNDKLKNLITLTENNLGYSIFQSIEKTKVDLSIQSSSSFSYHKADIHIDEPIDLTAYNRIIQRDVTKINNYLESFLSKHAIVPESIDSLFLTGGTSMVQAIQALFKEKFPHIAITSGDNFISVSKGLAYSGYLFD | not soluble |
| TPVLIRQLANKDRAREFSFLKDLGKDIAHFRFLGSFSTHAKVHDQLMDIDLHNRMAYIALAYDNDELTEIGVARYGAYEGDAHCEFAIAVSEKWQRRGVATALLKRLMETATKEGFSKISSMDASKNLAMDGLATSMGFTCRVDEKHGPRIFHEYVLVQ | not soluble |
| SSRVTYPLRKMREGAQDLAKGKFDTKIPILTQDEIGELATAFNQMGRQLNFHINALNQEKEQLSNILSSMADGVITINIDGTILVTNPPAERFLQAWYYEQNMNIKEGDNLPPEAKELFQNAVSTEKEQMIEMTLQGRSWVLLMSPLYAESHVRGAVAVLRDMTEERRLDKLREDFIANVSHELRTPISMLQGYSEAIVDDIASSEEDRKEIAQIIYDESLRMGRLVNDLLDLARMESGHTGLHYEKINVNEFLEKIIRKFSGVAKEKNIALDHDISLTEEEFMFDEDKMEQVFTNLIDNALRHTSAGGSVSISVHSVKDGLKIDIKDSGSGIPEEDLPFIFERFYKADKARTRGRAGTGLGLAIVKNIVEAHNGSITVHSRIDKGTTFSFYIPTKR | not soluble |
| MGSSHHHHHHGKTIFVIVPTNEEQVAFLEALAKQDELNFDWQNPPTEPGQPVVILIPSDMVEWFLEMLKAKGIPFTVYVEEGGSENLYFQGGGGGGQSPRDAHTHTHTHTDAHKHVLVHICVCVCACVCVSYSLHSTLALSLPAFSPHCHSLRLGFHVFRKQRARTKTAAVAEQRGLRWTHTTARTAKSGWPPRGHTDTHTHTHTHTHITWEYASSGMTLVFEARRLPFGSISEVYAASIQPIVALHALDKLPLWDRCMLVAVLPVVQQRHSASAAAAPPSTVVRPSLTRNDSDNADAAAASLSSATVRAANHEERVNASPELAGAPSLEDVALALTIVRALDELEVVYDSSISTRAELEQQQQQQPSLPAASLAEAPRRAFKQPKKTSEELLMEQLLQERFTDTAPYLLESSDEGGENSADAAVDVAMCFTVKGESLGIGSATIFGGHGYHP | not soluble |
| MGSDKIHHHHHHYGAQAYGMGGGGGGYNRPMNSYGNGYNNGGGFNNYGNGGGFGGNNYNNGPPPFDGGYNRPYGGGGGGGYGRPQGYVPPPPPPPTQPEPEPEPRPEPQPEPQPEPQPEPQPEPQPEPHPEPAPEPIVKPYNSYAQPHNSYVRYGGK | not soluble |
| MHYDAIVVGGGMVGAAAALGLAQRGFQVAVIEQEMPTPFDATSPPDLRISAIGYASVALLKELDAWPRVQQMRSAPYRRLETWEWANARVVFDAADIHLPELGFMVENRVLQLALWESLQEEERCRCYCPATPQGLQRTDDGWCLQLADGQKLTASLVIGADGANSQVRQWAGIGISGWQYRQSCMLIGVETSQPQQDVTWQQFTPSGPRAFLPLFDQWGSLVWYDSPQRIRQLQAMPLAQLDKEIAAAFPERLGTVKVISAGSFPLVRRHAQTYIKPGLVLLGDAAHTINPLAGQGVNLGYRDVEALLDVLINARNAGEQWASERVLRRYQCRRMPDNLMMQSGMDLFYSAFSNALPPLSFARNMALMVAQRAGVLKQRALKYAIGVLEHHHHHH | soluble |
| MYEQACTTILVGKKATVDGSTMIARNDDTFMPITPQKFIVHPAVHGRNETLTSGKNGFTAPLPADGYRYQAVPNIEVAEKGVFEENGFNEKNVGVSSTESVYGNEHTLTFDPFVPNGLAEDSLPTMLTPFIDSARGGVEYLGQLIAKYGSPEGNGVLFNDKDDVWYMEIVTGHHWVAQRIPDDAYAVAANQVAIQWVDFDDPDNFMWSDGIQEFVAEHHLNPDKEGFNFRHIFGTDNEKDRHYNTPRVWYGQRYFNPEIEQDPQSSELPFICHAAKKISVADVEFVLGSHYNETKYDPFLNTPEAKKFRPISMNRTQNSHVMQVRNDVPAEQSAIMWMTFGVPAFAPYLPFHANVSETDPSFANTPLKHDMNSAYWLYRTLSMIVESHYADFVQDDIDYLKECRIELGQFVAATDEQAAKLSGDELTAFLTEQDKVMVAKMRDKAQALIGQLVTKGLTLSKLTYNVDINLLEHHHHHH | not soluble |
| MSEMQMDCALDLMRRLPPQQIEKNLIDLIDLAPDLCEDLLSSVDQPLKIAKDKEHGKDYLLCDYNRDGDSYRSPWSNSYYPPLEDGQMPSERLRKLEIEANYAFDQYREMYYEGGVSSVYLWDLDHGFAAVILIKKAGDGSKMIRGCWDSIHVVEVQEKTTGRTAHYKLTSTAMLWLQTNKQGSGTMNLGGSLTRQQEQDANVSESSPHIANIGKMVEEMENKIRNTLNEIYFGKTKDIVNGLRSTQSLADQRQQAAMKQDLAAAILRRNVKPESN | not soluble |
| MSAESGVAALLRLMAWLSPAFPVGGFSYSGGLEKAVEDGRVCDAAGLGGWVETLLRHGSLWNDAVFLAHAWRSSQDTTALSETANLGRALAGSAERYRETVLLGDAFIAAASAWPHAVLELLPKEAPYPVAIGAVAAGHGVPLRETLAAFLHAGVSQIVSAGIRLGVAGQKDGVAILAASEAVIEEIAARAALSTLDDLGSATVIADTAAMRHETQGTRLFRSLEHHHHHH | not soluble |
| MTMNIAVVSGRIAPELTLPGLNFSRAYAPSTDFRSARLGLLTGQYPQRQPVTRFASLIGTVAEDFSPADVHIIERAEITPDLLDQAHDSGAATFFVGHPTIDDHRVRMSLLWPGVTDTNLPHDTIDGVVTCNELVSTLDIAPTLAAIAGYDVRPNAQLSFDGMNLTPVIRYGATGHGGLFFDDGTVITPTEVRRQANDPEWTMWHQFMNMGPLQ | not soluble |
